# Non-standard residues stand in square brackets, D forms with d. No end group written: not given here. Phe(4-CN) = N#Cc1ccc(C[C@H](N)C(=O)O)cc1; αMePhe(2-F) = C[C@](N)(Cc1ccccc1F)C(=O)O; αMeL = CC(C)C[C@](C)(N)C(=O)O; Aib = CC(C)(N)C(=O)O
# B1: Example 347 (peptide)
# chain: YXQGTXTSDXSILLDKQAQKAFIEYLLEGGPSSGEPPPSEG
# modifications: not fully specified; synthetic construct; SITE 2: note = 2-Aminoisobutyric Acid; SITE 6: note = alpha-methyl-2-fluoro-L-phenylalanine; SITE 10: note = 3-(4-Pyridyl)-L-alanine; SITE 20: note = Lysine is chemically modified through conjugation of the epsilon-amino group of the Lysine side chain with (2-[2-(2-Amino-ethoxy))
# Legend:
# Experiment in all cases: cell-based or functional assay
# hGLP-1R = hGLP-1R (Homo sapiens, UniProt P43220)
# hGLP-1R, sequence (P43220 24-463): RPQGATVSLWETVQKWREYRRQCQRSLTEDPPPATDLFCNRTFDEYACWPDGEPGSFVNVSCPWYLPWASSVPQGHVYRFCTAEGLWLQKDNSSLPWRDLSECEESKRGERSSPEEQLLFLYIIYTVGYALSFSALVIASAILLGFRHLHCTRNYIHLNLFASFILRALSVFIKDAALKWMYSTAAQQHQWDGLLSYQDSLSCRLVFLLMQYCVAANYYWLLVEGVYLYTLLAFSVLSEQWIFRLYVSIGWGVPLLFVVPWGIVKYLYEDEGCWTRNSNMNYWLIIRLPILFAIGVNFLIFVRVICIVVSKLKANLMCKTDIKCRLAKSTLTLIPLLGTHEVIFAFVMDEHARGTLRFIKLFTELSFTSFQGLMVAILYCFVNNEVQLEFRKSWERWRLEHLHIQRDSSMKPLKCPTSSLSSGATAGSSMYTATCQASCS
# [1] = target: T1, human GIP receptor (human) (UniProt P48546)
# T1 sequence (looked up): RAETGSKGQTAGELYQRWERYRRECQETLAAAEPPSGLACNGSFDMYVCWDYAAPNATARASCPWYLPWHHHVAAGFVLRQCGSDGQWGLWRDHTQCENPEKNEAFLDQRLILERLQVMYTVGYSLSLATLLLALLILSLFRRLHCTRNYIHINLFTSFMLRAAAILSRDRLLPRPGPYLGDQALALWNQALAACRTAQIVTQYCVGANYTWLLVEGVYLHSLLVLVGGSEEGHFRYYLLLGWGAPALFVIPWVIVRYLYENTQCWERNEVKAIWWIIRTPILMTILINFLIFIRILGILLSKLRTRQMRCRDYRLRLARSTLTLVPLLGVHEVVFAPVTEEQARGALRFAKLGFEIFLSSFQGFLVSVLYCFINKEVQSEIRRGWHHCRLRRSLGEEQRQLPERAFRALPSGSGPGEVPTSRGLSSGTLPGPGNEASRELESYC
# [2] = target: human glucagon receptor (human) (UniProt P47871)
# human glucagon receptor (human), sequence (P47871 26-477): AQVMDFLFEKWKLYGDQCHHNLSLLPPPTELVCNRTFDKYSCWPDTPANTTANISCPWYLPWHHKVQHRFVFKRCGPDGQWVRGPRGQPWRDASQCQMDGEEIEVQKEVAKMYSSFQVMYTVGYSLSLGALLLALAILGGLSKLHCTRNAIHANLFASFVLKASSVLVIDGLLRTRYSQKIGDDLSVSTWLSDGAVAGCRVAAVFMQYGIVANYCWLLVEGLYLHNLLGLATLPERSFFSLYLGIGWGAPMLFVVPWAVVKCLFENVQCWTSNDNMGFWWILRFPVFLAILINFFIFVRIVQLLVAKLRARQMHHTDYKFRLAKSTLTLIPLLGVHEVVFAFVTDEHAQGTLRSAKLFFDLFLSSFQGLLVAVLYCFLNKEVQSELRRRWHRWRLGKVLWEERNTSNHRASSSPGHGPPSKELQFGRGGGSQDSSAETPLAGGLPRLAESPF
Binder,Relative cAMP EC50 (hGLP-1R) [nM],"cAMP Rel EC50, nM (1% HSA) (hGLP-1R) [nM]",Relative cAMP EC50 [1] [nM],"cAMP Rel EC50, nM (1% HSA) [1] [nM]",Relative cAMP EC50 [2] [nM],"cAMP Rel EC50, nM (1% HSA) [2] [nM]",cAMP Rel EC50 (1% HSA) (hGLP-1R) [nM],cAMP Rel EC50 (1% HSA) [1] [nM],cAMP Rel EC50 (1% HSA) [2] [nM]
B1,0.798,254,0.0634,17.3,8.88,3650,,,
Y[Aib]QGT[αMePhe(2-F)]TSDFSILLDKQAQKAFIEYLLEGGPSSGEPPPSEG-NH2 (not fully specified (residue 20)) [Example 346],1.17,,0.0738,,15.6,,514,28.3,4310
Y[Aib]QGTFTSDYSK[αMeL]LDKKAQQAFVQWLIE[dA]GPSSGEPPPSEG-NH2 (not fully specified (residue 17)) [Example 342],0.419,,0.347,,10.2,,62,71.3,2130
Y[Aib]QGTFTSDYSI[αMeL]LDKQAAKQFVEWLIA[Aib]GPSSGEPPPGTG-NH2 (not fully specified (residue 20)) [Example 336],0.921,,0.306,,7.05,,227,64.4,1740
Y[Aib]QGTFTSDYSK[αMeL]LDKKAQQAFIEYLLAGGPSSGEPPPSGE-NH2 (not fully specified (residue 17)) [Example 344],2.56,,0.406,,9.05,,523,70.7,1440
Y[Aib]QGT[αMePhe(2-F)]TSDYSKLLDKIAQKAFIEYLIEGGPSSGEPPPSEG-NH2 (not fully specified (residue 20)) [Example 330],0.63,,0.0783,,3.91,,91.8,7.33,398
Y[Aib]QGT[αMePhe(2-F)]TSDYSILLDAQAAKEFIEYLIEGGPSSGEPPPSEG-NH2 (not fully specified (residue 20)) [Example 351],0.679,272,0.243,57.5,12.1,2470,,,
Y[Aib]QGTFTSDYSK[αMeL]LDKKAQQAFIEYLIAGGPSSGEPPPSGD-NH2 (not fully specified (residue 17)) [Example 337],0.686,,0.332,,5.95,,272,99.1,2950
Y[Aib]QGT[αMePhe(2-F)]TSD[Phe(4-CN)]SILLDKQAQKAFIQYLLEGGPSSGEPPPSEG-NH2 (not fully specified (residue 20)) [Example 353],0.634,222,0.127,53.7,11,3080,,,
Y[Aib]QGT[αMePhe(2-F)]TSD[Phe(4-CN)]SILLDKQAQKAFIEYLLEGGPSSGEPPPSEG-NH2 (not fully specified (residue 20)) [Example 352],0.967,407,0.245,34.1,16.4,4020,,,
Y[Aib]QGT[αMePhe(2-F)]TSDYSILLDKQAAKEFIEYLIEGGPSSGEPPPSEG-NH2 (not fully specified (residue 20)) [Example 348],0.346,136,0.127,36.4,3.9,1250,,,
